In patent US7754689B2, “Finger-1 peptide analogs of the TGF-β superfamily” (Wyeth LLC, priority 2006, dated 2010):
Values joined by “and” are separate entries in the source; they are usually repeats but may differ in a detail not shown here. Equal entries are not always repeated.

Assay: BMP solubility screen: A320 turbidity of BMP-12 solutions
Assay type: physicochemical
Details: 50 mM Tris pH 8, 0.5 mg/mL BMP-12
Method: BMP Solubility Screen—A Tecan liquid-handling robot was used to mix a master plate of reagents, 800 μL×1.25 concentration (for each solution; see Tables 2 and 3), each in 50 mM Tris buffer at pH 8. An eight-channel pipettor was used to transfer 80 μL of material from the master plate into a half-area UV microplate, from which A320 was read from each sample to define a blank. A repeat-pipettor was used to add 20 μL of 2.5 mg/mL BMP-12 in 0.1% TFA to make a 0.5 mg/mL solution, which was then agitated at 14000 rpm. The UV absorption (A320) was read and the blank absorption subtracted to determine solubility. The procedure was repeated with a wider range of 2-methyl-2,4-pentanediol (MPD) concentrations and a finer set of salt concentrations (Table 4).

B1: BMP-12: Bone Morphogenic Protein, member of the TGF-β superfamily; tested in solution and immobilized on Sepharose beads as affinity ligand (protein)
chain: TALAGTRTAQGSGGGAGRGHGRRGRSRCSRKPLHVDFKELGWDDWIIAPLDYEAYHCEGLCDFPLRSHLEPTNHAIIQTLLNSMAPDAAPASCCVPARLSPISILYIDAANNVVYKQYEDMVVEACGCR
- A320 minus blank (turbidity) (NaCl 0 M, 1-propanol 0%): 1.724
- A320 minus blank (turbidity) (NaCl 0 M, 1-propanol 2.5%): 1.848
- A320 minus blank (turbidity) (NaCl 0 M, 1-propanol 5%): 2.134
- A320 minus blank (turbidity) (NaCl 0 M, 1-propanol 10%): 2.000
- A320 minus blank (turbidity) (NaCl 0 M, 1-propanol 15%): 3.172
- A320 minus blank (turbidity) (NaCl 0 M, 1-propanol 25%): 1.419
- A320 minus blank (turbidity) (NaCl 0 M, 2-methyl-2,4-pentanediol 2.5%): 1.936
- A320 minus blank (turbidity) (NaCl 0 M, 2-methyl-2,4-pentanediol 5%): 2.122
- A320 minus blank (turbidity) (NaCl 0 M, 2-methyl-2,4-pentanediol 10%): 2.148
- A320 minus blank (turbidity) (NaCl 0 M, 2-methyl-2,4-pentanediol 15%): 2.035
- A320 minus blank (turbidity) (NaCl 0 M, 2-methyl-2,4-pentanediol 20%): 2.136
- A320 minus blank (turbidity) (NaCl 0 M, 2-methyl-2,4-pentanediol 25%): 2.631
- A320 minus blank (turbidity) (NaCl 0.00 M, 2-methyl-2,4-pentanediol 30%): 3.443
- A320 minus blank (turbidity) (NaCl 0.00 M, 2-methyl-2,4-pentanediol 35%): 3.006
- A320 minus blank (turbidity) (NaCl 0.00 M, 2-methyl-2,4-pentanediol 40%): 3.519
- A320 minus blank (turbidity) (NaCl 0.00 M, 2-methyl-2,4-pentanediol 45%): 3.308
- A320 minus blank (turbidity) (NaCl 0.05 M, 2-methyl-2,4-pentanediol 25%): 1.994
- A320 minus blank (turbidity) (NaCl 0.05 M, 2-methyl-2,4-pentanediol 30%): 0.979
- A320 minus blank (turbidity) (NaCl 0.05 M, 2-methyl-2,4-pentanediol 35%): 0.376
- A320 minus blank (turbidity) (NaCl 0.05 M, 2-methyl-2,4-pentanediol 40%): 0.330
- A320 minus blank (turbidity) (NaCl 0.05 M, 2-methyl-2,4-pentanediol 45%): 0.318
- A320 minus blank (turbidity) (NaCl 0.1 M, 1-propanol 0%): 1.745
- A320 minus blank (turbidity) (NaCl 0.1 M, 1-propanol 2.5%): 2.135
- A320 minus blank (turbidity) (NaCl 0.1 M, 1-propanol 5%): 2.212
- A320 minus blank (turbidity) (NaCl 0.1 M, 1-propanol 10%): 1.945
- A320 minus blank (turbidity) (NaCl 0.1 M, 1-propanol 15%): 3.199
- A320 minus blank (turbidity) (NaCl 0.1 M, 1-propanol 25%): 0.104
- A320 minus blank (turbidity) (NaCl 0.1 M, 2-methyl-2,4-pentanediol 2.5%): 1.900
- A320 minus blank (turbidity) (NaCl 0.1 M, 2-methyl-2,4-pentanediol 5%): 2.338
- A320 minus blank (turbidity) (NaCl 0.1 M, 2-methyl-2,4-pentanediol 10%): 2.341
- A320 minus blank (turbidity) (NaCl 0.1 M, 2-methyl-2,4-pentanediol 15%): 2.287
- A320 minus blank (turbidity) (NaCl 0.1 M, 2-methyl-2,4-pentanediol 20%): 2.573
- A320 minus blank (turbidity) (NaCl 0.1 M, 2-methyl-2,4-pentanediol 25%): 0.715 and 0.626
- A320 minus blank (turbidity) (NaCl 0.10 M, 2-methyl-2,4-pentanediol 30%): 0.206
- A320 minus blank (turbidity) (NaCl 0.10 M, 2-methyl-2,4-pentanediol 35%): 0.150
- A320 minus blank (turbidity) (NaCl 0.10 M, 2-methyl-2,4-pentanediol 40%): 0.083
- A320 minus blank (turbidity) (NaCl 0.10 M, 2-methyl-2,4-pentanediol 45%): 0.087
- A320 minus blank (turbidity) (NaCl 0.25 M, 1-propanol 0%): 1.804
- A320 minus blank (turbidity) (NaCl 0.25 M, 1-propanol 2.5%): 2.397
- A320 minus blank (turbidity) (NaCl 0.25 M, 1-propanol 5%): 2.300
- A320 minus blank (turbidity) (NaCl 0.25 M, 1-propanol 10%): 2.105
- A320 minus blank (turbidity) (NaCl 0.25 M, 1-propanol 15%): 1.392
- A320 minus blank (turbidity) (NaCl 0.25 M, 1-propanol 25%): 0.022
- A320 minus blank (turbidity) (NaCl 0.25 M, 2-methyl-2,4-pentanediol 2.5%): 2.061
- A320 minus blank (turbidity) (NaCl 0.25 M, 2-methyl-2,4-pentanediol 5%): 2.399
- A320 minus blank (turbidity) (NaCl 0.25 M, 2-methyl-2,4-pentanediol 10%): 2.434
- A320 minus blank (turbidity) (NaCl 0.25 M, 2-methyl-2,4-pentanediol 15%): 2.433
- A320 minus blank (turbidity) (NaCl 0.25 M, 2-methyl-2,4-pentanediol 20%): 1.006
- A320 minus blank (turbidity) (NaCl 0.25 M, 2-methyl-2,4-pentanediol 30%): −0.015
- A320 minus blank (turbidity) (NaCl 0.25 M, 2-methyl-2,4-pentanediol 35%): −0.065
- A320 minus blank (turbidity) (NaCl 0.25 M, 2-methyl-2,4-pentanediol 40%): 0.015
- A320 minus blank (turbidity) (NaCl 0.25 M, 2-methyl-2,4-pentanediol 45%): −0.012
- A320 minus blank (turbidity) (NaCl 0.5 M, 1-propanol 0%): 1.953
- A320 minus blank (turbidity) (NaCl 0.5 M, 1-propanol 2.5%): 2.170
- A320 minus blank (turbidity) (NaCl 0.5 M, 1-propanol 5%): 1.629
- A320 minus blank (turbidity) (NaCl 0.5 M, 1-propanol 10%): 1.313
- A320 minus blank (turbidity) (NaCl 0.5 M, 1-propanol 15%): 0.305
- A320 minus blank (turbidity) (NaCl 0.5 M, 1-propanol 25%): −0.001
- A320 minus blank (turbidity) (NaCl 0.5 M, 2-methyl-2,4-pentanediol 2.5%): 2.045
